# Patent US8043804B2, “DBC1, a novel native inhibitor of anti-aging protein SIRT1” (The Trustees of Columbia University in the City of New York, priority 2007, dated 2011)
# Columns and labels:
# Format in all cases: biochemical
# SIRT2 = target: T1, SIRT2 (Homo sapiens, UniProt Q8IXJ6); assay: In vitro deacetylation assay, acetylated tubulin as substrate of purified SIRT2; details: nicotinamide 5 mM, increasing amounts of DBC1 (FIG. 3d)
# T1 construct: made in house; host or cells: transfected mammalian cells (293 cells are named for the Flag-SIRT constructs)
# T1 sequence (Q8IXJ6 1-389): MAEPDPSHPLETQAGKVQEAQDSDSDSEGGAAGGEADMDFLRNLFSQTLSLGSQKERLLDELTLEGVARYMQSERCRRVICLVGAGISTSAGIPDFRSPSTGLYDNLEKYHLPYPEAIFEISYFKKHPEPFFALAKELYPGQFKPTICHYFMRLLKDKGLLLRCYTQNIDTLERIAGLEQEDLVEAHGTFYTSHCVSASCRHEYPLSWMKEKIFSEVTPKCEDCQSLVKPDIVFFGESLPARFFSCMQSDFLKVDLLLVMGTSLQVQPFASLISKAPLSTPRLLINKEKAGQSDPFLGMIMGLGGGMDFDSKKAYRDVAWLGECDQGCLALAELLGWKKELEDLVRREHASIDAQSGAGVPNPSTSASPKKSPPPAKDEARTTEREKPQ
# HDAC1 = HDAC1 (Homo sapiens, UniProt Q13547); assay: In vitro deacetylation of p53 by purified HDAC1 complex; details: purified HDAC1 complexes, increasing amounts of DBC1 (FIG. 9)
# Sequence of HDAC1 (Q13547 whole entry, species assumed): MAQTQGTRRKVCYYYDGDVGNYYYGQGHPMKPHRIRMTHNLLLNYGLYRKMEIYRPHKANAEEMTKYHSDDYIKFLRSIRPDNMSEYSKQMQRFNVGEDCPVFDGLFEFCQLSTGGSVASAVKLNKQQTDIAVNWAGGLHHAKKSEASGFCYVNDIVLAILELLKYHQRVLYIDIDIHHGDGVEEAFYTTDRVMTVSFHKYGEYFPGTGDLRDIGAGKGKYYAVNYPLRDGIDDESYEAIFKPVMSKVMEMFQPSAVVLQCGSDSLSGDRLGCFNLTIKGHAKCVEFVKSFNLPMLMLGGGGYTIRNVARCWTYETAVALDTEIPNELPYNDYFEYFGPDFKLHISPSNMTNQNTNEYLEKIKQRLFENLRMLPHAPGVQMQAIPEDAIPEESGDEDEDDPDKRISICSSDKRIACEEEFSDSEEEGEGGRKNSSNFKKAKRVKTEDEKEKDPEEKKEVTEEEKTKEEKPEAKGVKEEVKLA
# Procedure: FIG. 9. Effect of DBC1 on HDAC1 mediated p53 deacetylation in vitro. Purified HDAC1 complex was used to deacetylate p53 in vitro (lane 2). Increasing amounts of DBC1 were added in addition to HADC1 (lanes 3-4) to investigate whether DBC1 can inhibit p53 deacetylation by HDAC1. […] The samples were resolved by SDS-PAGE and analyzed by Western Blot using antibodies for acetylated p53, total p53 (DO-1), HDAC1 and DBC1.
# Finally, p53 could also be deacetylated by purified HDAC1 complexes as previously shown (Luo, 2000) (lane 2, FIG. 9); this deacetylase activity was not repressed by DBC1 (lanes 3-4).
# SIRT1 = target: T2, SIRT1 (Homo sapiens, UniProt Q96EB6); assay: In vitro deacetylation assay, acetylated p53 as substrate of purified Flag-SIRT1; details: purified system, 50 μM NAD, dose dependent, Western blot (FIG. 3c)
# T2 construct: made in house
# T2 sequence (Q96EB6 1-747): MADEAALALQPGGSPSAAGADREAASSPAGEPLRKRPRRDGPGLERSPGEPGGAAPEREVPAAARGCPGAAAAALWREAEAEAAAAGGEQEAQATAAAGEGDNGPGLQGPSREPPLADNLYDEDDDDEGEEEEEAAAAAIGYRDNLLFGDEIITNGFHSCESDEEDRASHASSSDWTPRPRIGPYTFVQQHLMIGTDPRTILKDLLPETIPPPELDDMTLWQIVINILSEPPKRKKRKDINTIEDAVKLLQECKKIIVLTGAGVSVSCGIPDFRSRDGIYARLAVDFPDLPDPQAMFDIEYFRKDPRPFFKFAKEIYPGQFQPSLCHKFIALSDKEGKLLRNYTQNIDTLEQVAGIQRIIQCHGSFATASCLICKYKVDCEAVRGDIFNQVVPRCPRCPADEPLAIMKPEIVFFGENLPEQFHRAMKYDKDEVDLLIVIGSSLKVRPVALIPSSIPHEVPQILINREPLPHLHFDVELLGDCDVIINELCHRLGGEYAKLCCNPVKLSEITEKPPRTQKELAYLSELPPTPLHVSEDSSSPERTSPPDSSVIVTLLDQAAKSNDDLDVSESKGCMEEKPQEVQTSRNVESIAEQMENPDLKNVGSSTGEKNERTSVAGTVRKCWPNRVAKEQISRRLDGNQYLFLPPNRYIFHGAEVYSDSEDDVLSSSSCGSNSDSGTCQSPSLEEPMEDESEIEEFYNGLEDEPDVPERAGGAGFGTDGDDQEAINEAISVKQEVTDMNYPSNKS
# Procedure: FIG. 3. DBC1 inhibits SIRT1 mediated deacetylation of p53 (a) Fractionation of immunoprecipitated F-SIRT1 complex. 293 cells were transfected with Flag-tagged SIRT1 and Flag-SIRT1 complexes were subsequently purified by M2-immunoprecipitation in FLAG-lysis buffer. Flag-SIRT1 complex was eluted in 100 ul of elution buffer and half of the elution was fractioned by size-exclusion chromatography on a Sepherose12 Column on the SMART system. 10% of each fraction was analyzed by Western Blot for DBC1 (upper panel) and SIRT1 (lower panel). (b) DBC1 inhibits SIRT1 mediated deacetylation of p53 in vitro. […] The reactions were resolved on SDS-PAGE and analyzed by Western Blot using antibodies specific for acetylated p53, total p53 (DO-1), SIRT1 and DBC1. […] The reactions were resolved on SDS-Page and analyzed by Western Blot using antibodies specific for acetylated p53, total p53, SIRT1 and DBC1. […]
# Although the deacetylase activity of SIRT1 is essential for its function, it is unknown how this activity is regulated. When purified Flag-SIRT1 complexes from human cells were analyzed by gel-filtration chromatography on a Superose 12 column (SMART system), SIRT1 and DBC1 polypeptides co-eluted in fraction 15 with an apparent molecular weight of 440 KDa (lane 4, FIG. 3a). […]
Molecule,SIRT2-mediated deacetylation of acetylated tubulin (SIRT2),HDAC1-mediated deacetylation of p53 (HDAC1),SIRT1-mediated deacetylation of acetylated p53 (SIRT1)
"NC(=O)c1cccnc1 [nicotinamide, reference compound]",inhibited,–,–
Flag-DBC1: Flag-tagged Deleted in Breast Cancer 1 protein purified by M2 immunoprecipitation under high stringency,not affected,not repressed,strongly repressed
